Literature values in patent US11147890B2, “Stimuli-responsive particles encapsulating a gas and methods of use” (Children's Medical Center Corporation, priority 2017, dated 2021).

Conditions: per gram basis

Substance: hemoglobin
- oxygen carrying capacity: 0.17 mL/g
